One may read the Kd as the concentration at which binding is half-saturated.

For one substance, Kd results are on record in paper PMC7425896, “Polypeptides derived from α-Synuclein binding partners to prevent α-Synuclein fibrils interaction with and take-up by cells” (PLoS ONE, 2020).

This data set has as its target T1, αSyn fibrils (Homo sapiens, UniProt P37840).
T1 construct: made in house
In words: Filter trap (cellulose acetate filter retardation) assay of ATTO488-labelled Hsc70 and subdomains binding to αSyn fibrils. The conditions noted are these: labelled:unlabelled 1:50, 0–2 μM (domains 0–5 μM), αSyn fibrils 1 μM, PBS, 1h RT, fluorescence, filtered in triplicate, 2 to 3 independent experiments, read-out: KD of ATTO488-labelled polypeptides for αSyn fibrils. The method, then:
The KD for Hsc70, SBD, SBDβ and SBD-lid interaction with αSyn fibrils were measured as follow. Hsc70 and its subdomains were first labeled by addition of the aminoreactive fluorescent dye ATTO488 (Invitrogen, Carlsbad, CA, USA) using a protein:dye molar ratio of 1:5. The reaction was stopped by adding Tris-HCl pH 7.5 (20 mM final concentration). The unreacted fluorophore was removed by NAP5 desalting column. Under these conditions the majority of primary amines unaffected by the labelling as 0.05 to 0.08 dye molecules were incorporated on average within Hsc70 or its subdomains, as assessed by absorbance spectroscopy. Binding of ATTO488-labeled polypeptides to fibrillar αSyn was then followed by a filter retardation assay where fibrils and associated proteins are retained on a membrane. The different ATTO488-labeled polypeptides were diluted with their unlabeled counterpart (labeled:unlabeled polypeptides ratio of 1:50) at different final concentrations (0–2 μM) and incubated with or without αSyn fibrils (1 μM) in PBS for 1h at RT. 200 μl of each sample were filtered in triplicate through cellulose acetate membranes (0.2 μm pore size, Millipore Corp., Bedford, MA) using a 48-slot slot-blot filtration apparatus (GE Healthcare). The amount of labeled polypeptide retained on the membrane was visualized using a ChemiDocTM MP (BioRad). Images were processed and quantified using Image Lab.

Consider “Hsc70-ATTO488: Hsc70 labeled with the aminoreactive fluorescent dye ATTO488”, for which the Kd stood at 490 ± 20 nM.
